According to US20040161826A1, “Thermostable enzymes having aminotransferase activity, nucleic acids encoding them and methods of making and using them” (priority 1999, published 2004):

Tests used:
[1] = target: aromatic amino acid aminotransferase (Pyrococcus horikoshii, UniProt O59096); test: Amino group transfer reaction with phenylalanine as donor, phenylpyruvic acid traced at 280 nm; type: biochemical, Pyrococcus horikoshi; conditions: receptor 2-ketoglutaric acid, pH 8.0, 25° C.
Protocol: Then, kinetic parameters of each substrate were compared. […] Next, a change in the amount of NADH was traced with a change in absorbance at 340 nm, and then kinetic parameters, Kcat and Km values were measured.
When hydrophobic substrate (phenylalanine) was used as an amino group donor, the amount of reaction product (phenylpyruvic acid) was traced with a change in absorbance at 280 nm, and then Kcat and Km values were measured.

[2] = substrate: N[C@@H](CC(=O)O)C(=O)O; test: purified protein, by the assay type; conditions: other: amino group donor aspartic acid, receptor 2-ketoglutaric acid, pH 8.0, 25° C.
[3] = Optimum temperature and optimum pH from Kapp, DTNB reduction traced at 412 nm; type: biochemical, Pyrococcus horikoshi; conditions: substrates L-cysteic acid and 2-ketoglutaric acid
Protocol: The presence of aminotransferase activity can be determined by any means.
Optimum temperature and optimum pH were measured as described below using L-cysteic acid and 2-ketoglutaric acid as substrates. Optimum temperature was determined according to the temperature dependence of the Kapp value which was determined by varying the reaction temperature from 30° C. to 98° C. in 50 mM phosphate buffer (pH6.5), tracing an increase in absorbance at 412 nm resulting from reduction of 5,5′-Dithiobis ([…]) (DTNB), finding Kapp value from the initial velocity.
Optimum pH was determined according to pH dependence of the Kapp value which was determined under the measurement conditions as described above by maintaining the reaction temperature at 90° C., and varying the pH of an enzyme reaction solution from 3.4 to 7.5, finding Kapp.

[4] = pH stability by circular dichrograph (CD); type: physicochemical, Pyrococcus horikoshi; conditions: 25° C.
Protocol: pH stability was analyzed using a circular dichrograph (CD, type J-720W, JASCO Corporation). The pH of an enzyme solution (0.1 mg/ml) was varied from 1.0 to 13.0, a change in intensity of negative ellipicity[q] at 25° C. was measured, so that pH stability was found.

Isoelectric focusing = type: physicochemical, Pyrococcus horikoshi
[5] = Thermal stability: differential scanning calorimeter (DSC); type: physicochemical, Pyrococcus horikoshi
Protocol: Thermal stability was analyzed by measurement of residual activity after heating and with a differential scanning calorimeter (DSC).
In measurement with DSC, a DSC (type CSC5100™, Calolimetry Science) was used. Cell temperature was increased from 0 to 125° C. (1 K/min), and then a change in thermal capacity of the enzyme protein in 20 mM phosphate buffer (pH6.5) was measured. Enzyme concentration employed was 1 mg/ml.

[6] = Thermal stability: residual activity after heating; type: physicochemical, Pyrococcus horikoshi; conditions: pH 6.5, 95° C. for 6 hours, 0.1 mg/ml in 20 mM phosphate buffer
Protocol: Thermal stability was analyzed by measurement of residual activity after heating and with a differential scanning calorimeter (DSC). To measure residual activity after heating, this enzyme (0.1 mg/ml) was heated for a certain period of time at 95° C. and at 110° C. in 20 mM phosphate buffer (pH6.5) and quenched. Then, residual activity was measured.

N[C@@H](Cc1ccccc1)C(=O)O [phenylalanine]
Kcat [1]: 12 s⁻¹

B1: aromatic amino acid aminotransferase (Pyrococcus horikoshii OT3) (protein)
chain: MALSDRLELVSASEIRKLFDIAAGMKDVISLGIGEPDFDTPQHIKEYAKEALDKGLTHYGPNIGLLELREAIAEKLKKQNGIEADPKTEIMVLLGANQAFLMGLSAFLKDGEEVLIPTPAFVSYAPAVILAGGKPVEVPTYEEDEFRLNVDELKKYVTDKTRALIINSPCNPTGAVLTKKDLEEIADFVVEHDLIVISDEVYEHFIYDDARHYSIASLDGMFERTITVNGFSKTFAMTGWRLGFVAAPSWIIERMVKFQMYNATCPVTFIQYAAAKALKDERSWKAVEEMRKEYDRRRKLVWKRLNEMGLPTVKPKGAFYIFPRIRDTGLTSKKFSELMLKEARVAVVPGSAFGKAGEGYVRISYATAYEKLEEAMDRMERVLKERKLV
kcat [2]: 0.18 s⁻¹
kcat/Km [2]: 1.7 M⁻¹ s⁻¹

B2: this enzyme: thermostable aminotransferase of Pyrococcus horikoshi JCM9974, 388 residues, homodimeric, expressed recombinantly in E. coli (protein, listed as Pyrococcus horikoshi)
chain: B1 chain
optimum temperature ([3]; 50 mM phosphate buffer pH 6.5, 30° C. to 98° C.): 90 °C
optimum pH ([3]; 90° C., pH 3.4 to 7.5): 6.0
Kapp value ([3]; pH 6.5, 90° C.): 139 s⁻¹
pH range over which the enzyme remains stable ([4]; for 24 hours or more, 0.1 mg/ml): 4 to 11
a-helix content ([4]; pH 6.5): 40%
isoelectric point (Isoelectric focusing): 5.2
denaturation ([5]; DSC, pH 6.5): irreversible
enthalpy change ([5]; at the melting temperature, pH 6.5): 574 kcal/mol
melting temperature (Tm value) ([5]; pH 6.5, 20 mM phosphate buffer, 1 mg/ml, 1 K/min): 120.1 °C
residual activity after heating [6]: remained stable, or was not deactivated
